Earlier results in paper PMC8241641 (European Journal of Nuclear Medicine and Molecular Imaging, 2021).

Set-up: method as in PMID 28864620

Substance: [^177Lu]Lu-DOTA-TATE
- Dose to the bone marrow typically calculated: 0.03–0.07 Gy/GBq
